According to PMC3329491, “Insight on an Arginine Synthesis Metabolon from the Tetrameric Structure of Yeast Acetylglutamate Kinase” (PLoS ONE, 2012):

B1: complete mature yeast N-acetyl-L-glutamate kinase (yNAGK), residues 58-513 (enzyme, Saccharomyces cerevisiae, UniProt Q01217 58-513, looked up)
chain: VSSTNGFSATRSTVIQLLNNISTKREVEQYLKYFTSVSQQQFAVIKVGGAIISDNLHELASCLAFLYHVGLYPIVLHGTGPQVNGRLEAQGIEPDYIDGIRITDEHTMAVVRKCFLEQNLKLVTALEQLGVRARPITSGVFTADYLDKDKYKLVGNIKSVTKEPIEASIKAGALPILTSLAETASGQMLNVNADVAAGELARVFEPLKIVYLNEKGGIINGSTGEKISMINLDEEYDDLMKQSWVKYGTKLKIREIKELLDYLPRSSSVAIINVQDLQKELFTDSGAGTMIRRGYKLVKRSSIGEFPSADALRKALQRDAGISSGKESVASYLRYLENSDFVSYADEPLEAVAIVKKDTNVPTLDKFVCSDAAWLNNVTDNVFNVLRRDFPALQWVVSENDANIAWHFDKSQGSYLKGGKVLFWYGIDDINTISELVENFVKSCDTASTLNSSASS
modifications: for crystallization only: surface-exposed lysine residues reductively dimethylated
notes: N-acetyl-L-glutamate kinase of Saccharomyces cerevisiae, made by processing of the polyprotein precursor encoded by ARG5,6 (Uniprot Q01217); Amplified from pYB3 and inserted into pTrc99a; Methylated protein is stated for crystal NAGK1; Nothing says that the protein of the size exclusion run was methylated; also called complete yNAGK; complete mature yNAGK; source: E. coli BL21 (DE3), purified …
B2: truncated yNAGK spanning residues 58 to 356 (AAK domain, lacking the C-terminal DUF619 domain) (domain or fragment, Saccharomyces cerevisiae, UniProt Q01217 58-356, looked up)
chain: VSSTNGFSATRSTVIQLLNNISTKREVEQYLKYFTSVSQQQFAVIKVGGAIISDNLHELASCLAFLYHVGLYPIVLHGTGPQVNGRLEAQGIEPDYIDGIRITDEHTMAVVRKCFLEQNLKLVTALEQLGVRARPITSGVFTADYLDKDKYKLVGNIKSVTKEPIEASIKAGALPILTSLAETASGQMLNVNADVAAGELARVFEPLKIVYLNEKGGIINGSTGEKISMINLDEEYDDLMKQSWVKYGTKLKIREIKELLDYLPRSSSVAIINVQDLQKELFTDSGAGTMIRRGYKLVK
notes: A Se-Met-substituted form was used for phasing only (not deposited); also called truncated AAK; yNAGK lacking its C-terminal domain; source: E. coli BL21 (DE3), purified (HisTrap); not shown: MGH6 His-tag, N-terminal, kept

Legend:
[1] = target: the molecule itself; assay: SEC; analytical size exclusion chromatography on Superdex 200 10/300, 24°C, 50 mM Hepes pH 7.5/0.25 M NaCl; elution volume against protein standards
[2] = target: the molecule itself; assay: crystal structure; truncated yNAGK, space group P212121, four subunits in the asymmetric unit; with NAG, with NAG and arginine, or ligand-free; grown at 4°C, 50 mM Na acetate pH 4.6, 0.2 M Na-malonate, 2% PEG-8K

Protein	stoichiometry N [1]	stoichiometry N [2]
B1	4	–
B2	–	4
